From article PMC6891901

System: T1, KH9-OEP34 (CTP) (synthetic)
T1 sequence: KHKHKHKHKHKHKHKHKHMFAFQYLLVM
Experiment: free peptide quantification
Settings: in water; N/P 0.5-5.0; value stated as up to 64%; pDNA/CTP complexes formed in water, N/P 0.1-25, agarose gel EMSA; pH, salt and temperature not given in the material

## pPpsbA::Rluc
  binding signal (% of CTP bound (maximum)): 64
